Data reported in patent publication US20040132029, “Method of error reduction in nucleic acid populations” (published 2004).

Biological target: T1, MutS (MutSt) (UniProt Q56215 Q56215:1-811)
T1 sequence: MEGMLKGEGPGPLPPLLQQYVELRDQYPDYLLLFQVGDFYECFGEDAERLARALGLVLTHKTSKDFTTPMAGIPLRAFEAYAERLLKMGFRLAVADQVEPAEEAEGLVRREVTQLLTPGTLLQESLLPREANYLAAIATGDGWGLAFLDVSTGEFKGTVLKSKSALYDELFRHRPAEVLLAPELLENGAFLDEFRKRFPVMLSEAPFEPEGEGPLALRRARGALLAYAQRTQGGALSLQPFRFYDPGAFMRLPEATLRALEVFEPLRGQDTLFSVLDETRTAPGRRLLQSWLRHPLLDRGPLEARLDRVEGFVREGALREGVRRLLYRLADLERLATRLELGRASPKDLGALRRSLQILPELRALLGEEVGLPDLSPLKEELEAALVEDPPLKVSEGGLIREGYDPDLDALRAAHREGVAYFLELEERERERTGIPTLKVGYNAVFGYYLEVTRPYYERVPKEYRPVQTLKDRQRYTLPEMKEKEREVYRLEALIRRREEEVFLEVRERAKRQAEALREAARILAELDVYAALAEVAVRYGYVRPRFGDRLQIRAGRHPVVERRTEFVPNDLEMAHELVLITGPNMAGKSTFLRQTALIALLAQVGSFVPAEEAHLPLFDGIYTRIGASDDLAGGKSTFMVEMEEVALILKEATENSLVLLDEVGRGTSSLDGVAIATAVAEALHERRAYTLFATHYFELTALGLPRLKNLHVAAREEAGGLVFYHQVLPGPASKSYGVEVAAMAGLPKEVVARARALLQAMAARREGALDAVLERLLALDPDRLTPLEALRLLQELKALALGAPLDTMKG
Test: EMSA; 10 mM Tris-HCl pH 8.8, 5 mM MgCl2, 0.1% Triton X-100, 37 C; preferred over wt; tenfold unlabeled del20 competes, proteinase K removes shift
Conditions: tags: Epicenter Technologies, Madison, Wis; label: 5' fluorescein on anti-sense strand; single unpaired base (deletion at position 20 of anti-sense)
Protocol: In a typical reaction 80 pmols of unlabeled sense strand were mixed with 40 pmols of Cy5 labeled anti-sense strand and 40 pmols of fluorescein labeled mutant strand (del20 or C>A) in 1× Muts buffer ( 10 mM Tris-HCl pH 8.8, 5 mM MgCl₂, 0.1% TritonX-100). The mixture was annealed in a thermocycler after being first denatured at 95° C. for 5 minutes. The mixture was then cooled at 0.2° C./sec until temperature reaches 25° C. The duplex DNA thus created is illustrated in FIG. 5.
2 or 6 μg of MutSₜ protein (Epicenter Technologies, Madison, Wis.) was added to the annealed oligonucleotides. The mixture was then incubated at 37° C. for 30 minutes.

B1: GFPuv 351-390 del20 heteroduplex (dsDNA)
DNA 1: GTTAATGGGCACAAATTTTCTGTCAGTGGAGAGGGTGAAG
DNA 2: CTTCACCCTCTCCACTGACGAAAATTTGTGCCCATTAAC
B1: binds.
